Measurements published in the supplement of paper PMC10567573.

B1: PBXIP1 (parent)
chain: LPVETLGPASRMDPESERALQAPH

Variants of: B1
Assay: protein stability index of a GFP-peptide fusion (GPS, HEK-293T) (PSI 1-6); higher = more stable
Details: c terminus: a fixed tail appended
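Note: lentivirally expressed fusions sorted by FACS into six bins by GFP to DsRed ratio, PSI derived from sequencing read proportions per bin multiplied by bin number.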

Protein stability index, by site and new letter:
A9: L 3.18, E 4.56, P 4.92, N 4.63, F 3.83, M 4.12, T 4.51, H 4.91, G 4.33, Y 4.26, Q 4.59, C 3.68, K 4.77, R 4.81, I 4.04, D 4.54, W 4.42, V 2.51
G7: Q 4.99, I 4.76, H 4.54, D 5.29, V 4.95, T 5.37, C 5, E 5.51, R 5.12, F 4.62, P 4.61, A 5.51, M 4.03, S 5.42, K 5.55, Y 4.63, L 5.23, N 5.24, W 4.63
E17: A 3.65, D 3.97, N 4.29, H 3.92, K 4.19, Y 3.92, C 3.76, L 3.72, W 3.4, I 3.1, P 4.18, F 3.61, M 3.9, R 3.91, S 4.56, V 4.62, Q 4.06, T 4.23, G 4.13
R18: S 4.19, T 4.82, Q 4.55, L 3.69, A 4.57, K 4.6, P 4.18, V 4.45, H 4.77, W 3.66, Y 3.7, N 4.62, E 4.47, F 4.07, M 4.73, D 4.44, I 4.29, G 4.66, C 4.12
E15: I 3.27, C 3.82, M 3.48, A 4.35, L 4.03, R 4.19, S 3.81, P 3.92, T 4.02, K 4.04, V 4.28, Q 4.26, W 3.1, F 3.81, N 4.47, D 5.08, H 4.13, G 3.99, Y 3.95
T5: P 4.95, M 4.41, A 5.26, R 4.14, K 4.38, F 4.89, Q 5.52, N 5.12, E 5.77, D 5.49, Y 4.93, C 4.89, H 4.72, G 5.33, L 3.9, W 4.65, I 4.52, V 4.6, S 4.68
E4: Y 4.22
L6: F 4.81, W 4.72, D 5.48, T 5.37, P 5.41, Y 5.53, Q 5.78, S 5.44, G 4.71, C 4.55, N 5.42, M 5.3, H 5.09, V 4.45, E 5.21, K 5.03, I 3.73, R 5.28, A 5.19
D13: R 2.62, L 3.75, E 4.66, M 4.11, I 4.61, K 3.98, F 4.48, W 3.71, P 4.13, H 3.83, V 4.38, A 4.61, N 4.66, S 3.88, C 3.64, G 4.41, Q 3.7, T 4.28, Y 3.73
M12: D 4.95, G 4.4, L 4.04, C 4.32, S 4.11, H 4.11, E 4.46, Q 4.89, V 4.34, W 4.17, F 4.15, I 4.5, Y 4.09, P 4.35, K 5.34, R 4.33, N 4.41, T 4.45, A 4.31
Q21: D 4, V 4.39, W 3.22, L 3.96, G 3.97, K 4.28, R 4.44, Y 3.67, S 4.45, M 4.05, F 3.8, C 4.14, P 4.53, A 3.93, N 4.28, T 4.55, E 4.79, I 4.09, H 3.92
L20: V 3.82, G 4.46, N 4.42, C 3.99, T 4.58, Y 4.14, A 4.26, M 4.45, I 4.55, P 4.72, F 4.28, R 4.86, D 4.92, S 4.49, W 3.7, Q 4.7, H 4.27, E 4.81, K 4.41
A22: C 4.45, L 3.98, G 4.72, H 4.76, P 4.27, I 4.23, Q 4.45, K 4.4, F 4.01, D 4.7, E 4.68, M 3.68, N 4.5
S10: T 4.78, N 5.01, C 4.24, Q 4.88, Y 3.85, V 4.44, W 4.4, M 4.3, G 4.47, K 5.32, I 3.95, R 4.99, E 5.28, H 4.2, L 3.53, F 3.75, A 5.14, D 4.92
A19: P 4.71, S 4.19, G 4.23, R 4.09, W 3.82, V 4.46, E 4.68, L 4.22, T 4.63, I 4, K 4.32, Q 4.46, D 4.41, H 4.31, M 4.21, F 4.05, Y 3.64, N 4.45, C 4.48
S16: I 3.77, H 4.25, Q 4.53, G 4.56, D 4.54, N 4.54, Y 4.05, W 4.12, R 3.56, T 4.35, P 3.95, M 4.09, K 4.34, C 4.49, E 4.48, A 4.16, L 2.83, F 3.85, V 4.31
P14: I 4.22, G 3.56, M 4.04, V 4.42, F 4.32, N 4, R 4.19, H 3.61, L 3.91, K 4.43, C 4.13, W 3.81, Y 3.72, S 4.09, T 4.37, D 4.44, A 4.62, Q 4.75, E 4.61
P8: W 4.01, Y 4.67, E 5.52, H 4.51, Q 5.1, D 5.46, K 4.39, I 4.89, A 5.03, S 4.64, V 4.83, L 4.99, G 5.57, T 5.31, C 5.37, M 4.16, R 4.73, F 4.19, N 5.28
R11: H 3.71, Y 3.67, Q 4.09, P 3.98, G 3.95, A 4.18, W 3.7, E 4.48, L 3.66, M 3.96, V 4.66, C 4.63, F 3.6, K 4, I 2.99, N 4.4, T 4.2, S 4.01
